In article PMC10630626:
One block for each binder: values may come before it.

How the values were obtained:
[1] = target: Palivizumab single-chain variable fragment, light-heavy order, fused to IgG1 Fc (P^scFvLHFc)
Palivizumab [2] = test: ELISA; competitive: Palivizumab coated, HRP-conjugated anti-idiotypic IgG (AbD23967/HCA262P, 0.2 μg/ml; 1 nM in the legend) co-incubated with 0.1-100 nM soluble AIP1-4^VHH, 1% BSA in PBS, room temperature
Palivizumab [3] = test: SPR; Palivizumab (about 1000 RU) or P^scFvFc variants (about 500 RU) captured on a Protein A chip, AIP^VHH as analyte; Biacore X100, 25 °C, PBS pH 7.4 with 0.05% P20, 30 μl/min, 120 s injection, 500 s dissociation, 1:1 binding model
[4] = target: Palivizumab single-chain variable fragment, heavy-light order, fused to IgG1 Fc (P^scFvHLFc); test: as above
[5] = target: Palivizumab single-chain variable fragment, light-heavy order, fused to IgG1 Fc (P^scFvLHFc); test: as above
[6] = target: anti-idiotypic nanobody for Palivizumab 1 (AIP1^VHH), soluble
[7] = target: anti-idiotypic nanobody for Palivizumab 2 (AIP2^VHH), soluble
[8] = target: anti-idiotypic nanobody for Palivizumab 3 (AIP3^VHH), soluble
[9] = target: anti-idiotypic nanobody for Palivizumab 1 (AIP1^VHH), soluble; remark: listed apart in the source
[10] = target: anti-idiotypic nanobody for Palivizumab 1 (AIP1^VHH), soluble; remark: listed apart in the source
[11] = target: anti-idiotypic nanobody for Palivizumab 2 (AIP2^VHH), soluble; remark: listed apart in the source
[12] = target: anti-idiotypic nanobody for Palivizumab 3 (AIP3^VHH), soluble; remark: listed apart in the source
[13] = target: anti-idiotypic nanobody for Palivizumab 3 (AIP3^VHH), soluble; remark: listed apart in the source

B4: Palivizumab (antibody, V domains shown)
VH: QVTLRESGPALVKPTQTLTLTCTFSGFSLSTSGMSVGWIRQPPGKALEWLADIWWDDKKDYNPSLKSRLTISKDTSKNQVVLKVTNMDPADTATYYCARSMITNWYFDVWGAGTTVTVSS
VL: DIQMTQSPSTLSASVGDRVTITCKCQLSVGYMHWYQQKPGKAPKLLIYDTSKLASGVPSRFSGSGSGTEFTLTISSLQPDDFATYYCFQGSGYPFTFGGGTKLEIK
EC50 of proliferation of Ba/F3-gp130-AIP1^VHHgp130 cells, Palivizumab cross-linked with a 6-fold molar excess of hFc-mAb [6]: 215 nM
EC50 of proliferation of Ba/F3-gp130-AIP2^VHHgp130 cells, Palivizumab cross-linked with a 6-fold molar excess of hFc-mAb [7]: 48.8 nM
EC50 of proliferation of Ba/F3-gp130-AIP3^VHHgp130 cells, Palivizumab cross-linked with a 6-fold molar excess of hFc-mAb [8]: 2.71 nM
proliferation of Ba/F3-gp130 cells expressing AIP3^VHHgp130, Palivizumab 0.033-66 nM, percent of the maximal proliferation with HIL-6 [8]: 20%
IC50 of Palivizumab (0.49-1000 nM) for proliferation of Ba/F3-gp130-AIP1^VHHgp130 cells induced by 2 nM P^scFvLHFc; blocks P^scFvLHFc with AIP1^VHHgp130 [9]: 8.28 nM
molar excess of Palivizumab over P^scFvLHFc (2 nM) for complete suppression of STAT3 phosphorylation in Ba/F3-gp130-AIP1^VHHgp130 cells (fold molar excess) [9]: > 8

B5: Palivizumab single-chain variable fragment, heavy-light order, fused to IgG1 Fc (P^scFvHLFc) (Fc fusion)
VH: QVTLRESGPALVKPTQTLTLTCTFSGFSLSTSGMSVGWIRQPPGKALEWLADIWWDDKKDYNPSLKSRLTISKDTSKNQVVLKVTNMDPADTATYYCARSMITNWYFDVWGAGTTVTVSS
VL: DIQMTQSPSTLSASVGDRVTITCKCQLSVGYMHWYQQKPGKAPKLLIYDTSKLASGVPSRFSGSGSGTEFTLTISSLQPDDFATYYCFQGSGYPFTFGGGTKLEIK
EC50 of proliferation of Ba/F3-gp130-AIP1^VHHgp130 cells, P^scFvHLFc 0.00056-100 nM (Fig. 6E) [10]: 0.4 nM
EC50 of proliferation of Ba/F3-gp130-AIP1^VHHgp130 cells, P^scFvHLFc 0.00563-5.77 nM (Fig. 6H) [10]: 0.5 nM
lowest concentration that induced STAT3 phosphorylation in Ba/F3-gp130-AIP1^VHHgp130 cells (0.19 to 6 nM tested, Fig. 6I) [10]: 0.19 nM
EC50 of proliferation of Ba/F3-gp130-AIP2^VHHgp130 cells, P^scFvHLFc 0.00056-100 nM (Fig. 6E) [11]: 0.7 nM
EC50 of proliferation of Ba/F3-gp130-AIP3^VHHgp130 cells, P^scFvHLFc 0.00056-100 nM (Fig. 6E) [12]: 9.1 nM

B6: Palivizumab single-chain variable fragment, light-heavy order, fused to IgG1 Fc (P^scFvLHFc) (Fc fusion)
VH: QVTLRESGPALVKPTQTLTLTCTFSGFSLSTSGMSVGWIRQPPGKALEWLADIWWDDKKDYNPSLKSRLTISKDTSKNQVVLKVTNMDPADTATYYCARSMITNWYFDVWGAGTTVTVSS
VL: DIQMTQSPSTLSASVGDRVTITCKCQLSVGYMHWYQQKPGKAPKLLIYDTSKLASGVPSRFSGSGSGTEFTLTISSLQPDDFATYYCFQGSGYPFTFGGGTKLEIK
EC50 of proliferation of Ba/F3-gp130-AIP1^VHHgp130 cells, P^scFvLHFc 0.00563-5.77 nM (Fig. 6H) [10]: 0.38 nM
EC50 of proliferation of Ba/F3-gp130 cells expressing AIP1^VHHgp130, P^scFvLHFc 0.00053-93.5 nM (Fig. 6B) [10]: 0.21 nM
lowest concentration that induced STAT3 phosphorylation in Ba/F3-gp130-AIP1^VHHgp130 cells (0.19 to 6 nM tested, Fig. 6I) [10]: 1.5 nM
EC50 of proliferation of Ba/F3-gp130 cells expressing AIP3^VHHgp130, P^scFvLHFc 0.00053-93.5 nM (Fig. 6B) [12]: 6.61 nM
caspase 3/7 activity in Ba/F3-gp130-AIP3^VHHFas cells, dimeric P^scFvLHFc 0.1-100 nM, percent of the activity with cross-linked 2× P^scFvLHFc [13]: < 50%

Results, then the binder that gave them:

IC50 of soluble AIP3^VHH (0.49-1000 nM) for proliferation of Ba/F3-gp130-AIP1^VHHgp130 cells induced by 2 nM P^scFvLHFc; blocks P^scFvLHFc with AIP1^VHHgp130 [1]: 364 nM
IC50 (Palivizumab [2]): 48.5 nM
Kd (Palivizumab [3]): 1.11 nM
B1: anti-idiotypic nanobody for Palivizumab 3 (AIP3^VHH), soluble (VHH)
VHH: DVQLQESGGGLVQPGGSLRLSCVASGRTWSIYAMGWFRQAPGKEREFVTAISISRSESVTHYAESVTGRFTISRDNAKNTLHLQMNSLKPEDTAVYFCAADRRSIDPHHTIDYWGQGTQVTVSS

Kd (Palivizumab [3]): 3.14 nM
B2: anti-idiotypic nanobody for Palivizumab 4 (AIP4^VHH), soluble (VHH)
VHH: DVQLQESGGGLVQAGGSLRLSCVASGRAFSRYDMGWFRQAPGKEREFVAQISWRGGSATSYADTVKGRFTIARDNAKNTVYLQMNSLKPEDTAVYYCNARTPTLSSWGQGTQVTVSS

IC50 of soluble AIP1^VHH (0.49-1000 nM) for proliferation of Ba/F3-gp130-AIP1^VHHgp130 cells induced by 2 nM P^scFvLHFc; blocks P^scFvLHFc with AIP1^VHHgp130 [1]: 2.79 nM
IC50 (Palivizumab [2]): 1.76 nM
Kd [4]: 0.0272 nM
Kd [5]: 0.0098 nM
Kd (Palivizumab [3]): 0.026 nM
koff (Palivizumab [3]): 5.9e-05 s⁻¹
kon (Palivizumab [3]): 2.3e+06 M⁻¹ s⁻¹
B3: anti-idiotypic nanobody for Palivizumab 1 (AIP1^VHH), soluble (VHH)
VHH: DVQLQESGGGLVQAGGSLRLSCVASGLTFRYDMGWFRQAPGKEREFVAQITWRGGSATYYADSVKGRFTIARDIAKNAVYLQMNSLKPEDTAVYYCAAAYGSAGYRPDEYDSWGQGTQVTVSS

IC50 of soluble AIP2^VHH (0.49-1000 nM) for proliferation of Ba/F3-gp130-AIP1^VHHgp130 cells induced by 2 nM P^scFvLHFc; blocks P^scFvLHFc with AIP1^VHHgp130 [1]: 83.1 nM
IC50 (Palivizumab [2]): 4.4 nM
Kd (Palivizumab [3]): 2.16 nM
B7: anti-idiotypic nanobody for Palivizumab 2 (AIP2^VHH), soluble (VHH)
VHH: DVQLQESGGGLVQAGGSLRLSCAASESLFRLNAMGWYRQAPGKQRELVAGITTSGDAVYADSVKGRFTISRDSAKNTVYLQTNNLKPEDTAVYYCNVRPRAGTWENARIGVWGQGTQVTVSS
